Test results published in US7166427.

Target: T1, PepTag peptide C1
T1 chain: PLSRTLSVAAK

B1: recombinant DESC1 polypeptide expressed as a fusion protein with an amino-terminal His tag (pcDNA4/HisMax) (protein)
chain: MYRPDVVRARKRVCWEPWVIGLVIFISLIVLAVCIGLTVHYVRYNQKKTYNYYSTLSFTTDKLYAEFGREASNNFTEMSQRLESMVKNAFYKSPLREEFVKSQVIKFSQQKHGVLAHMLLICRFHSTEDPETVDKIVQLVLHEKLQDAVGPPKVDPHSVKIKKINKTETDSYLNHCCGTRRSKTLGQSLRIVGGTEVEEGEWPWQASLQWDGSHRCGATLINATWLVSAAHCFTTYKNPARWTASFGVTIKPSKMKRGLRRIIVHEKYKHPSHDYDISLAELSSPVPYTNAVHRVCLPDASYEFQPGDVMFVTGFGALKNDGYSQNHLRQAQVTLIDATTCNEPQAYNDAITPRMLCAGSLEGKTDACQGDSGGPLVSSDARDIWYLAGIVSWGDECAKPNKPGVYTRVTALRDWITSKTGI
- PepTag Protease Assay: proteolysis of dye-linked peptide, agarose gel electrophoresis: demonstrate proteolytic cleavage of C1 peptide by fractions containing DESC1 polypeptide eluted from the ProBond resin
